In article PMC4676704, “Functional Characterization of MC1R-TUBB3 Intergenic Splice Variants of the Human Melanocortin 1 Receptor” (PLoS ONE, 2015):

Molecular target: T1, Flag-tagged Iso1, MC1R-TUBB3 in-frame intergenic splice chimera (human)
T1 construct: numbers count on: MC1R-002; Tubulin-β-III, human; A BamHI site in the TUBB3 part was ablated by site-directed mutagenesis (ATC to ATT by the printed primer, silent by my reading); also called Flag-Iso1; MC1R-TUBB3 chimeric isoform Iso1; source: HEK293T, transfected (pcDNA3); not shown: Flag, N-terminal, kept
Assay: radioligand binding; equilibrium competition binding on transfected HEK293T cells, 24 h after transfection, serum deprived 3 h; 125I-NDP-MSH 5x10^-11 M with unlabelled NDP-MSH from 10^-12 to 10^-7 M
Settings: one partner purified

B1: [Nle4, D-Phe7]-αMSH (NDP-MSH), 125I-labelled (peptide)
chain: SYSLEHFRWGKPV
modifications: not fully specified; Nle at position 4; D-Phe at position 7; 125I label (tracer)
Question: For B1, which Kd is on record?
Answer: 0.59 nM
